Columns and labels:
[1] = molecular target: phosphorylation-deficient M1 muscarinic acetylcholine receptor (M1-PD), transfected in HEK293T cells (UniProt P12657)
[2] = molecular target: M1 muscarinic acetylcholine receptor, wild type (M1-WT), transfected in HEK293T cells (UniProt P12657)

“Gq (Gαq, BRET biosensor of Gq activation in HEK cells) (from UniProt P50148 1-359) (natural protein)” showed an Emax of ACh-stimulated Gq activation (BRET biosensor, decrease in BRET, HEK cells) [1] of 108 and an Emax of ACh-stimulated Gq activation (BRET biosensor, decrease in BRET, HEK cells) [2] of 100.

With “β-arrestin-2 (bystander BRET sensor in HEK293T cells) (from UniProt P32121 1-409) (natural protein)” the Emax of ACh-stimulated β-arrestin-2 recruitment (bystander BRET: translocation of β-arrestin-2 to the cell membrane, HEK293T cells) [1] was 40.7 and the Emax of ACh-stimulated β-arrestin-2 recruitment (bystander BRET: translocation of β-arrestin-2 to the cell membrane, HEK293T cells) [2] was 104.
